Legend:
[1] = biological target: T1, human ASGR-1 (wild type) (human, UniProt P07306 1-291); assay: FACS, transfected CHO-S cells, mAb 5 ug/ml
T1 construct: also called wt ASGR1; huASGR-1
T1 sequence: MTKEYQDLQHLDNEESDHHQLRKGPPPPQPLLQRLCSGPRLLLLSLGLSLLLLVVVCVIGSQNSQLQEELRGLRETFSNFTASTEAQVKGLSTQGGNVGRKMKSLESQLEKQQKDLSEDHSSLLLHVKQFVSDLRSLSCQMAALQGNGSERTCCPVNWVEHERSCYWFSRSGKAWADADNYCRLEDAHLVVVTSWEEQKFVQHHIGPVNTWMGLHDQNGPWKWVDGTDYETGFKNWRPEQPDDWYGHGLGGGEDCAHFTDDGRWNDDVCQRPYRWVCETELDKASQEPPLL
Method: (§1) The ability of human ASGR-1-specific, ligand competing antibodies to bind to the mutant hASGR-1 proteins was assessed by FACS as described above.
(§2) Antibodies were tested for binding to the individual mutant and wild type ASGR-1 constructs using normalized antibody concentrations (5 ug/ml). CHO—S cells transiently expressing the appropriate mutated or non-mutated antigen of interest were mixed with antibody sample or controls, incubated for 1 hour at 4° C., and then washed twice. Cells with bound antibody were then incubated with Alexa Fluor® 647 IgG Fc fragment-specific detection antibody and 7-AAD viability stain for 15 minutes at 4° C., washed once and resuspended in FACS buffer. Samples were analyzed using a BD Accuri™ Flow Cytometer and an Intellicyt HyperCyt Autosampler. As a negative control, supernatants and controls were also screened against CHO—S cells transfected with empty parental vector (referred to as mock). […] Because mutant hASGR-1 expression levels varied relative to each other, sample binding data for each construct was normalized for expression by dividing the binding data from an antibody not affected by the mutations (e.g., 65C12) by the binding values of each test antibody on a given mutant construct. Also, because the antibody binding affinities varied amongst the samples, the expression corrected data (above) was further normalized by comparing test antibody binding on each mutant construct to wild type hASGR-1. Identification of specific mutations that affected test antibody binding was performed by an interquartile range (IQR) analysis to determine statistical outliers. A mutation was identified as a “hit” if the calculated values were >3× the IQR (above the 3rd quartile/upper fence) for a given mutant construct. Although IQR analysis was used here to determine signifance and identify hits, one skilled in the art will recognize that a number of methods could be employed in order to normalize the data (eg. using epitope-tagged constructs or other ASGR-1-binding antibodies directed against non-CBD epitopes).

[2] = biological target: T2, human ASGR-1 mutant construct H203 (human, UniProt P07306 1-291); assay: FACS, transfected CHO-S cells, mAb 5 ug/ml
T2 construct: Arg/Glu scanning: non-arginine residues were changed to arginine; Transiently expressed on CHO-S cells
T2 sequence: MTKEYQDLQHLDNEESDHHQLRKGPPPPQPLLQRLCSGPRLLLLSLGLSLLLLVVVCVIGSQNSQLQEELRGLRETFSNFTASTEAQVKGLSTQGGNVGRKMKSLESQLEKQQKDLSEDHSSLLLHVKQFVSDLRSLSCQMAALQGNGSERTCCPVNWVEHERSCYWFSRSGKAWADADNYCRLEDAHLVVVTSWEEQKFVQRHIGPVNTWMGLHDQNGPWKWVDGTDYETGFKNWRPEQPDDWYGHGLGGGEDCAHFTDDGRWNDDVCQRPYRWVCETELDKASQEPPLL
Method: as §1, §2

[3] = biological target: T1, human ASGR-1 (wild type); assay: FACS ratio: 65C12 geomean / this mAb geomean
Method: (§3) Mutant hASGR-1 variants were constructed such that non-arginine residues were changed to arginine and where wild type arginine residues were mutated to glutamic acid. Each mutant hASGR-1 sequence was then cloned into a mammalian expression vector and used to transiently transfect CHOs cells. The ability of human ASGR-1-specific, ligand competing antibodies to bind to the mutant hASGR-1 proteins was assessed by FACS as described above.
(§4) Antibodies were tested for binding to the individual mutant and wild type ASGR-1 constructs using normalized antibody concentrations (5 ug/ml). CHO—S cells transiently expressing the appropriate mutated or non-mutated antigen of interest were mixed with antibody sample or controls, incubated for 1 hour at 4° C., and then washed twice. Cells with bound antibody were then incubated with Alexa Fluor® 647 IgG Fc fragment-specific detection antibody and 7-AAD viability stain for 15 minutes at 4° C., washed once and resuspended in FACS buffer. Samples were analyzed using a BD Accuri™ Flow Cytometer and an Intellicyt HyperCyt Autosampler. As a negative control, supernatants and controls were also screened against CHO—S cells transfected with empty parental vector (referred to as mock). […] Because mutant hASGR-1 expression levels varied relative to each other, sample binding data for each construct was normalized for expression by dividing the binding data from an antibody not affected by the mutations (e.g., 65C12) by the binding values of each test antibody on a given mutant construct. Also, because the antibody binding affinities varied amongst the samples, the expression corrected data (above) was further normalized by comparing test antibody binding on each mutant construct to wild type hASGR-1. Identification of specific mutations that affected test antibody binding was performed by an interquartile range (IQR) analysis to determine statistical outliers. A mutation was identified as a “hit” if the calculated values were >3× the IQR (above the 3rd quartile/upper fence) for a given mutant construct.

[4] = biological target: T2, human ASGR-1 mutant construct H203; assay: FACS ratio: 65C12 geomean / this mAb geomean
Method: as §3, §4

[5] = biological target: T2, human ASGR-1 mutant construct H203; assay: FACS ratio: H203 normalized value / wt normalized value
Method: as §1, §2

Row | Binder | FACS Binding Geomean [1] | FACS Binding Geomean [2] | Expression Normalization to mAb 65C12 [3] | Expression Normalization to mAb 65C12 [4] | Normalization to wt ASGR1 Binding [5]
1 | 199A7 (antibody, V domains shown, mAb) VH: QVQLVESGGGVVQPGRSLRLSCAASGFTFSNYGMHWVRQAPGKGLEWVAIIWFDGSNKYYADSVKGRFTISRDNSKNTLFLQMSSLRAEDTAVYYCAREWLQFRYYYGMDVWGQGTTVTVSS VL: DIQMTQSPSSLSASVGDRVTITCRASQGIRKDLGWYQQKPGKAPKRLIYAASSLQSGVPSRFSGSGSGTEFTLTISSLQPEDFATYVCLQHYRYPFTFGPGTKVDFK | 17000 | 9460 | 3.3 | 2.72 | 0.826
2 | 65C12 (antibody, V domains shown, mAb) VH: EVQLVESGGGLVKPGGSLRLSCAASGFTFRSFSLNWVRQAPGKGLEWVSSISSSSSYIYYADSVKGRFTISRDNAKNSLYLQMNSLRAEDTAVYYCARDAYSHYWGQGTLVTVSS VL: EIVMTQSPATLSVFPGEGATLSCRASQSVSINLAWYQQKPGQAPRLLIYGASTRATGIPARFNASGSGTEFTLSISSLQSENFAVYYCQQYNTWPLTFGGGTKVEIK | 56100 | 25800 | 1 | 1 | 1
3 | 146B6 (antibody, V domains shown, mAb) VH: EVQLVESGGGLVQPGGSLRLSCAASGFTFSSYNMNWVRQAPGKGLEWVSYISRSSNTKHYADSVKGRFTISRDNAKNSLYLQMDSLRDEDTAVYYCARDRSGSYGYFYYYGLDVWGQGTTVTVSS VL: not shown | 24100 | 14400 | 2.32 | 1.79 | 0.769
4 | 85F7 (antibody, V domains shown, mAb) VH: QVQLQQWGAGLLKPSEPLSLTCAVYGGSFSGPYWSWIRQPPGKGLEWIGEINHSGSTNYNPSLKSRVTISVDTSKNQFSLKLTSVTAADTAVYYCARDYGGLDVWGQGTTVTVSS VL: EPVLTQSPGTLSLSPGERATLSCRASQNIYSNYLAWYQQKPGQAPRLLIYGASSRATGIPDRFSGSGSGTDFTLTISRLEPEDFAVYCCQQYESSPWTFGQGTKVEIK | 33000 | 16500 | 1.7 | 1.56 | 0.917
5 | 56E3 (antibody, V domains shown, mAb) VH: QVQLVQSGAEVKKPGASVKVSCKASGYTFNSYGFSWVRQAPGQGLEWMGWISAYNGNTKEAQKFQGRVTMTTDTSTSTAYMELRSLRADDTAVYYCARHDFWSGYYKGMDVWGQGTTVTVSS VL: not shown | 33900 | 20400 | 1.66 | 1.26 | 0.762
6 | 61A1 (antibody, V domains shown, mAb) VH: QVQLQESGPGLVKPSETLSLTCTVSGGSISSHFWSWIRQPAGKGLEWIGRIYIRGSTNYNPSLKSRVTMSVDTSKNQFSLKLSSVTAADTAVYYCAREGKTGGVSYFDYWGQGTLVTVSS VL: DIQMTQSPSSLSASVGDRVTITCRASQSISSYLNWYQQKPGKAPKLLIYAASSLQSGVPSRFSGSGSGTDFTLTISSLQPEDFAPYYCQQSYNISFTFGPGTKVDIK | 40000 | 20100 | 1.4 | 1.28 | 0.911
7 | 213B3 (antibody, V domains shown, mAb) VH: QVQLVESGGGVVQPGRSLRLSCAASGFTFSSYGMHWVRQAPGKGLEWVAVIWYDGSNKNYADSVKGRFTISRDNSKNTLYLQMNSLRAEDTAVYYCARDRTVGYDGFDIWGQGTMVTVSS VL: DIQMTQSPSSLSASVGDRVTITCRASQGIGKYLAWFQQKPGKAPKSLISAASSVLSGVPSKFSGSGSGTDFTLTISSLQPEDFATYYCQKYDTYPFTFGPGTKVDIK | 15100 | 12800 | 3.72 | 2.01 | 0.539
8 | 65D5 (antibody, V domains shown, mAb) VH: QVQLVQSGAEVKKPGASVKVSCKASGYTFPSYGISWVRQAPGQGLEWMGWISAYSGNTNYAQKLQGRVTMTTDTSTSTAYMELRSLRSDDTAVYFCARGEAVAVFDPWGQGTLVTVSS VL: DIQMTQSPSSLSASVGDRVTITCRASQDINNYLAWFQQKPGKAPRSLIYAASSLHSGVPSQFSASGSGSDFTLTISSLQPEDFATYYCPLYKSYPLTFGPGTKVDIK | 41000 | 20300 | 1.37 | 1.27 | 0.928
9 | 60C12 (antibody, V domains shown, mAb) VH: QVQLVESGGGVVQPGRSLRLSCAASGFTFSSYGMHWVRQAPGKGLEWVAVIWYDGSNKYYVDSVKGRFTISRDNSKNTLYLQMNSLRAEDTAVYYCARRYSRSWTGGMDVWGQGTTVTVSS VL: DIVMTQTPLSLSVTPGQPASISCKSSQSLLHSEGKTYLYWYLQKPGQPPQFLIYEVSNRFSGVPDRFSGSGSGTDFTLKISRVEAEDVGIYYCMQSIKYPLTFGGGTKVEIK | 31300 | 19800 | 1.79 | 1.3 | 0.725
10 | 173C11 (antibody, V domains shown, mAb) VH: QVQLVESGGGVVQPGRSLRLSCAASGFTFSSYGIHWVRQAPGKGLEWVALIFYDGSNKYYADSVKGRFTISRDNSKNTLYLHMSSLRAEDTAVYYCARRYSSSWSGGMDVWGQGTTVTVSS VL: DIVMTQTPLSLSVTPGQPASISCKSSQSLLHSEGKTYLYWYLQKPGQPPQLLIYEVSHRFSGVPDRFSGSGSGTDFTLKISRVEAEDVGVYYCMQSIQLLTFGGGTKVEIK | 28500 | 13900 | 1.97 | 1.86 | 0.945
